# B1: 6mer-2-806 (peptide)
# peptide: KHCVRK
# B2: 6mer-2-169 (peptide)
# peptide: KRQSRR
# B3: 6mer-2-189 (peptide)
# peptide: RWQCKK
# B4: 6mer-2-815 (peptide)
# peptide: KICGRK
# B5: 6mer-2-804 (peptide)
# peptide: RNCGKR
# B6: 6mer-2-199 (peptide)
# peptide: RGQYKR
# B7: 6mer-2-831 (peptide)
# peptide: RMTWRK
# B8: 6mer-2-192 (peptide)
# peptide: RWFSKK
# B9: 6mer-2-805 (peptide)
# peptide: RDTMKK
# B10: 6mer-2-172 (peptide)
# peptide: KVIRKK
# B11: 6mer-2-161 (peptide)
# peptide: KWRRKK
# B12: 6mer-2-170 (peptide)
# peptide: RQYQKK
# B13: 6mer-2-200 (peptide)
# peptide: RGVQRK
# B14: 6mer-2-174 (peptide)
# peptide: KLLRKR
# B15: 6mer-2-173 (peptide)
# peptide: RQQCKK
# B16: 6mer-2-817 (peptide)
# peptide: KCNDKK
# B17: 6mer-2-823 (peptide)
# peptide: REDWRK
# B18: 6mer-2-201 (peptide)
# peptide: KLFLRR
# B19: 6mer-2-181 (peptide)
# peptide: RWQQKK
# B20: 6mer-2-166 (peptide)
# peptide: RWLRKR
# B21: 6mer-2-827 (peptide)
# peptide: KYAEKK
# B22: 6mer-2-186 (peptide)
# peptide: KQICRK
# B23: 6mer-2-816 (peptide)
# peptide: RKMGKR
# B24: 6mer-2-195 (peptide)
# peptide: KSRQKR
# B25: 6mer-2-826 (peptide)
# peptide: RNTPRK
# B26: 6mer-2-814 (peptide)
# peptide: RYMERK
# B27: 6mer-2-819 (peptide)
# peptide: KFSVRR
# B28: 6mer-2-810 (peptide)
# peptide: KHAKKK
# B29: 6mer-2-163 (peptide)
# peptide: KWFYRR
# B30: 6mer-2-828 (peptide)
# peptide: RMKKKR
# B31: 6mer-2-822 (peptide)
# peptide: RCTAKK
# B32: 6mer-2-182 (peptide)
# peptide: KLFYKK
# B33: 6mer-2-193 (peptide)
# peptide: KWISKR
# B34: 6mer-2-168 (peptide)
# peptide: RVFLKR
# B35: 6mer-2-803 (peptide)
# peptide: RNKERK
# B36: 6mer-2-175 (peptide)
# peptide: KVYLRK
# B37: 6mer-2-160 (peptide)
# peptide: RVRRKK
# B38: 6mer-2-194 (peptide)
# peptide: KLRLRK
# B39: 6mer-2-812 (peptide)
# peptide: KPPEKR
# B40: 6mer-2-808 (peptide)
# peptide: RKKFKK
# B41: 6mer-2-176 (peptide)
# peptide: RWIYRR
# B42: 6mer-2-178 (peptide)
# peptide: KWLLRR
# B43: 6mer-2-179 (peptide)
# peptide: RRVYRR
# B44: 6mer-2-184 (peptide)
# peptide: KWVSRR
# B45: 6mer-2-187 (peptide)
# peptide: KRRRRK
# B46: 6mer-2-835 (peptide)
# peptide: RHCGKR
# B47: 6mer-2-188 (peptide)
# peptide: RGYTKR
# B48: 6mer-2-833 (peptide)
# peptide: RKTWRR
# B49: 6mer-2-829 (peptide)
# peptide: KKKIRR
# B50: 6mer-2-821 (peptide)
# peptide: RPTMKR
# B51: 6mer-2-811 (peptide)
# peptide: KAMKRK
# B52: 6mer-2-164 (peptide)
# peptide: KRQRRK
# B53: 6mer-2-197 (peptide)
# peptide: RGQYRR
# B54: 6mer-2-799 (peptide)
# peptide: KCSAKK
# B55: 6mer-2-196 (peptide)
# peptide: KSQRKK
# B56: 6mer-2-800 (peptide)
# peptide: RTAWKK
# B57: 6mer-2-167 (peptide)
# peptide: KLFQKR
# B58: 6mer-2-802 (peptide)
# peptide: KETKRR
# B59: 6mer-2-809 (peptide)
# peptide: REPWRR
# B60: 6mer-2-801 (peptide)
# peptide: RPNIRK
# B61: 6mer-2-185 (peptide)
# peptide: RGYQKR
# B62: 6mer-2-177 (peptide)
# peptide: RSVTKK
# B63: 6mer-2-198 (peptide)
# peptide: KWYYRK
# B64: 6mer-2-190 (peptide)
# peptide: KVYLKR
# B65: 6mer-2-171 (peptide)
# peptide: RQQTRR
# B66: 6mer-2-191 (peptide)
# peptide: RQLLKR
# B67: 6mer-2-813 (peptide)
# peptide: KKMDRR
# B68: 6mer-2-183 (peptide)
# peptide: RLQLRR
# B69: 6mer-2-807 (peptide)
# peptide: KIWNRK
# B70: 6mer-2-832 (peptide)
# peptide: KYHNRR
# B71: 6mer-2-162 (peptide)
# peptide: KVISKR
# B72: 6mer-2-820 (peptide)
# peptide: RPNNKK
# B73: 6mer-2-180 (peptide)
# peptide: RLRLKR
# B74: 6mer-2-824 (peptide)
# peptide: RITNKR
# B75: 6mer-2-834 (peptide)
# peptide: RFWWKR
# B76: 6mer-2-830 (peptide)
# peptide: RMKFKR
# B77: 6mer-2-165 (peptide)
# peptide: KWFTRR
# B78: 6mer-2-825 (peptide)
# peptide: KIHARK
# B79: 6mer-2-818 (peptide)
# peptide: KTPERK
# Target: acetylcholine receptor
# Assay: SPR, receptor immobilized, peptide 10 uM
Binding affinity (RU),Binding affinity,Binder
30 RU,–,B1
–,123 RU,B2
–,121 RU,B3
30 RU,–,B4
21 RU,–,B5
–,137 RU,B6
29 RU,–,B7
–,133 RU,B8
12 RU,–,B9
–,128 RU,B10
–,154 RU,B11
–,128 RU,B12
–,121 RU,B13
–,142 RU,B14
–,127 RU,B15
22 RU,–,B16
25 RU,–,B17
–,148 RU,B18
–,139 RU,B19
–,125 RU,B20
13 RU,–,B21
–,127 RU,B22
15 RU,–,B23
–,154 RU,B24
11 RU,–,B25
28 RU,–,B26
23 RU,–,B27

Binding affinity (RU),Binding affinity,Binder
18 RU,–,B28
–,149 RU,B29
32 RU,–,B30
13 RU,–,B31
–,139 RU,B32
–,127 RU,B33
–,135 RU,B34
18 RU,–,B35
–,137 RU,B36
–,121 RU,B37
–,154 RU,B38
33 RU,–,B39
21 RU,–,B40
–,144 RU,B41
–,133 RU,B42
–,121 RU,B43
–,136 RU,B44
–,145 RU,B45
20 RU,–,B46
–,142 RU,B47
14 RU,–,B48
22 RU,–,B49
33 RU,–,B50
16 RU,–,B51
–,135 RU,B52
–,126 RU,B53
13 RU,–,B54

Binding affinity (RU),Binding affinity,Binder
–,121 RU,B55
11 RU,–,B56
–,145 RU,B57
24 RU,–,B58
18 RU,–,B59
24 RU,–,B60
–,137 RU,B61
–,136 RU,B62
–,139 RU,B63
–,148 RU,B64
–,139 RU,B65
–,154 RU,B66
29 RU,–,B67
–,154 RU,B68
28 RU,–,B69
32 RU,–,B70
–,136 RU,B71
24 RU,–,B72
–,142 RU,B73
26 RU,–,B74
28 RU,–,B75
21 RU,–,B76
–,139 RU,B77
11 RU,–,B78
13 RU,–,B79

# — patent US20250011363A1, “OPTIMIZED SHORTENED PEPTIDE THAT BINDS TO ACETYLCHOLINE RECEPTOR, AND USE THEREOF” (SKINMED CO., LTD., priority 2021, published 2025)
